We go through 3 molecules from WO2013011062A2 (dated 2013).

One assay concerns the target T1, Human collagen I (human, UniProt P02452 162-1218; P08123 80-1119).
T1 construct: Bought (Sigma C5483); also called ColI; collagen 1
The assay can be described thus: SPR. A general note: In SPR one partner is held on a chip, and binding of the other changes the refractive index at the surface.

The target in assay [1] is T2, Human OSCAR (osteoclast-associated receptor), full length, on cells (human).
T2 construct: also called hOSCAR; HEK-OSCAR cells
T2 chain: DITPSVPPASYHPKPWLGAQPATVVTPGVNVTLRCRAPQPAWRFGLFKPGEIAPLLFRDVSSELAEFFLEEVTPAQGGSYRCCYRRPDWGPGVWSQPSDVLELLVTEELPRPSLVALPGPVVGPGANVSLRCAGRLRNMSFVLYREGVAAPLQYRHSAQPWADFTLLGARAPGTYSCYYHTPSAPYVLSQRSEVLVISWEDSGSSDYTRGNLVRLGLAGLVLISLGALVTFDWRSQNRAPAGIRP
The assay can be described thus: flow cytometry on human monocytes (CD14+ PBMC), Alexa Fluor 647-labelled mAb at 0.5 ug/ml.

Usually Kd stands for the equilibrium constant for the complex coming apart.

T1 sequence (P02452 162-1218, chain 1 of 2): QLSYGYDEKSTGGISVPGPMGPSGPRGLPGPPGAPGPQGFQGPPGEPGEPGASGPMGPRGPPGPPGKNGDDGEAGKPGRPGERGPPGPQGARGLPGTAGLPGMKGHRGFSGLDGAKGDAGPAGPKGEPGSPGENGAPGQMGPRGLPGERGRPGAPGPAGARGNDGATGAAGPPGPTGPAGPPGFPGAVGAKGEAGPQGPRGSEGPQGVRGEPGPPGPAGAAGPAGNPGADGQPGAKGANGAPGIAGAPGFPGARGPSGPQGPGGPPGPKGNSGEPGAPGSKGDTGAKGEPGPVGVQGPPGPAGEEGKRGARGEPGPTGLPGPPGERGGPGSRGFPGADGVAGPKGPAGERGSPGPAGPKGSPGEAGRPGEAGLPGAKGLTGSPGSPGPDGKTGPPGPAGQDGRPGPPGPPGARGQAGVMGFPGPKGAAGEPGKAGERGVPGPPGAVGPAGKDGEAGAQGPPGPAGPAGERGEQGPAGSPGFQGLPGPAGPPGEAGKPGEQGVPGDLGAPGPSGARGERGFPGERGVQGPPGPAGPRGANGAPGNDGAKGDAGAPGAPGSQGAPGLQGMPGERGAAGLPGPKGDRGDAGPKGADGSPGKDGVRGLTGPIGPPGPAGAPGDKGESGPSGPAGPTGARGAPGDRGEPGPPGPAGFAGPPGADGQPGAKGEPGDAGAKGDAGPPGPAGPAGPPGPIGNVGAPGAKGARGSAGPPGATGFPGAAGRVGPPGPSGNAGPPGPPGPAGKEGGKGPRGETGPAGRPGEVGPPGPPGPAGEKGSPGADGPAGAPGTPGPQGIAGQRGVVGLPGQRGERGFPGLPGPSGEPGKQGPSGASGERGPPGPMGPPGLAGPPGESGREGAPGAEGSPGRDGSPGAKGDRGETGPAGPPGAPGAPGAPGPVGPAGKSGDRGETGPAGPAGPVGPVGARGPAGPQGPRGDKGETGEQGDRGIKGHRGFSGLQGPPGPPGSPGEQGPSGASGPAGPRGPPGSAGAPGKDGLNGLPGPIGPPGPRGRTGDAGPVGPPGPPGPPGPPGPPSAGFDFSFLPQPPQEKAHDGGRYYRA
T1 sequence (P08123 80-1119, chain 2 of 2): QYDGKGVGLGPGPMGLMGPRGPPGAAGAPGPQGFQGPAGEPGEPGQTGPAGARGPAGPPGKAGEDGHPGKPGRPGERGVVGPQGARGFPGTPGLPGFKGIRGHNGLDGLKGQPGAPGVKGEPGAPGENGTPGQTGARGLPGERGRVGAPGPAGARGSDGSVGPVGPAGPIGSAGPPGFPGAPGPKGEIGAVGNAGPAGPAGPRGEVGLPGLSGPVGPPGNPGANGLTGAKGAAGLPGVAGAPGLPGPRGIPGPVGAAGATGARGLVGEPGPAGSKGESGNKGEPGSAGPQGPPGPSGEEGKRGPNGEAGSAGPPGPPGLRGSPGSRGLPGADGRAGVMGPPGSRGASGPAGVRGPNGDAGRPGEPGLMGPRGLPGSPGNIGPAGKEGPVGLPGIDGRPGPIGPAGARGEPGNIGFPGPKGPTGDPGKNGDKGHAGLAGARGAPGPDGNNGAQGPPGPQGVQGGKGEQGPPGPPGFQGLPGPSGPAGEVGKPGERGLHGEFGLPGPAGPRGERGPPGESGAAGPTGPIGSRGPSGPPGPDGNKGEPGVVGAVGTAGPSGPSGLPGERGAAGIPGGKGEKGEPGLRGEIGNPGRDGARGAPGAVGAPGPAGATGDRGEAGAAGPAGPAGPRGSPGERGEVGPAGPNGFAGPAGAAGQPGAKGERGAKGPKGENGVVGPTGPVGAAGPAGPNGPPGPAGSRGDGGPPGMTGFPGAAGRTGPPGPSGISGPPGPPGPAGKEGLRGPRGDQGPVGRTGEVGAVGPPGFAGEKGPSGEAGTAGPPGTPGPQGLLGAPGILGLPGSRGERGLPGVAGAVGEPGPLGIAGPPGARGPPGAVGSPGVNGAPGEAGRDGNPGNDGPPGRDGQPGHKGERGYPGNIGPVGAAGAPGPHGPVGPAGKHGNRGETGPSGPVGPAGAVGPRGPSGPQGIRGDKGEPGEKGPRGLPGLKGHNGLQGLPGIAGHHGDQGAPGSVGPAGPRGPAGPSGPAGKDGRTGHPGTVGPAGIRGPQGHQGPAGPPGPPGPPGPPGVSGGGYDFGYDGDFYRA

B1: recombinant extracellular domain of human OSCAR (OSCAR-ECD) (receptor)
chain: DITPSVPPASYHPKPWLGAQPATVVTPGVNVTLRCRAPQPAWRFGLFKPGEIAPLLFRDVSSELAEFFLEEVTPAQGGSYRCCYRRPDWGPGVWSQPSDVLELLVTEELPRPSLVALPGPVVGPGANVSLRCAGRLRNMSFVLYREGVAAPLQYRHSAQPWADFTLLGARAPGTYSCYYHTPSAPYVLSQRSEVLVISWEDSGSSDYTR
notes: The printed entry starts with the putative signal peptide; also called Human OSCAR-ECD; OSACAR-ECD
Consider B1, for which, in the assay with Human collagen I, the dissociation constant (Kd) is 255 nM.

B2: anti-OSCAR mAb 16F56A2 (antibody, V domains shown)
VH: QVQLVQSGAEVKKPGSSVKVSCKASGGTFSNYAISWVRQAPGQGLEWMGRIIPILGIAHNAQKFQDRVTITADKSTSTAYMELSSLRSEDTAVYYCASPSSGKGLPYWFFDLWGRGTLVTVSS
VL: DIQMTQSPSFLSASVGDRVTITCRASQSISSYLNWYQQKPGKAPKLLIYAASSLQSGVPSRFSGSGSGTDFTLTISSLQPEDFATYYCQCGYSTPLTFGGGTKVEIKR
notes: Human mAb
On to B2, for which, in assay [1], the binding result was “binds”.

B3: anti-OSCAR mAb 13F5A5 (antibody, V domains shown)
VH: EVQLVQSGAEVKKPGESLKISCKGSGYSFTSYWIVWVRQMPGKGLEWMGSIYPGDSDARYSPSFQGQVTISADKSISTAYLQWSSLKASDTAMYYCARQKITMVRGVIITPLDGMDVWGQGTTVTVSS
VL: not shown
notes: Fully human mAb (HuMab mice)
Consider B3, for which the binding result in assay [1] is given as “binds”.
